{"source": "patent US9744220B2", "about": "“Compositions and methods for treating inflammatory diseases” (priority 2013, dated 2017)", "key": {"[1]": {"tested_on": "cardiac and hepatic stem cell markers", "experiment": "Intravenous sPDNF into naïve mice, stem cell markers by real time PCR", "type": "in vivo", "conditions": "independently of TLR signaling", "procedure": "FIG. 2A is a graph showing stem cell marker expression in mice administered sPDNF. One set of three wild type C57BL/6 mice received intravenous (IV) PBS without (PBS) or with sPDNF (2 mg/kg) at 0, 3 and 24 hours (sPDNF 1d), and a second set IV sPDNF (2 mg/kg) for 6 days (sPDNF 6d). Mice were sacrificed 3 hr post injection and the indicated stem cells markers were quantified in the ventricles by real time PCR, and normalized to HPRT; *, p<0.05, **, p<0.001, ***, p<0.0001; SCF, stem cell factor, ns, not significant. FIG. 2B is a graph showing stem cell marker expression in MyD88^−/− mice administered sPDNF. TLR-deficient MyD88^−/− mice (C57BL/6 background) (2/group) were injected IV with a single dose of sPDNF (2 mg/kg), sacrificed at 3 hours post-injection, and the indicated cardiac stem cell markers assessed by qPCR. […] Cardiac Sca-1 and SCF transcripts were quantified by qPCR; **, P<0.001; ***, P<0.0005. FIG. 2D is a graph showing quantitation of Sca-1 expression in various organs of mice administered sPDNF. C57BL/6 mice (3 per group), average of two experiments) were injected IV with sPDNF at 4 mg/kg body weight or PBS, sacrificed 3 hours later, and Sca-1 mRNA quantified by qPCR in the liver, heart, colon and bone marrow (*, P<0.05, **, P<0.001; ns, not significant; dotted line represents Sca-1 mRNA of vehicle-treated mice set at 1.0, data are representative of 2 experiments. […]"}, "MCP-1 and FKN": {"tested_on": "MCP-1 and FKN", "experiment": "IV sPDNF into TLR-deficient MyD88-/- mice, MCP-1 and FKN", "type": "in vivo", "conditions": "IV 100 μg per mouse, 3 hr post-injection", "procedure": "Wild type C57BL/6 mice were used in the results depicted in FIGS. 11A-11D. FIG. 11A is a graph depicting that a single dose of intravenous (IV) sPDNF increased MCP-1 and FKN transcripts in the heart in a pulse-like response. Groups of mice (2 per group) were injected with vehicle (Veh) or sPDNF (150 μg/mouse) and sacrificed at 3, 6, 9 and 12 hr post-injection, and cardiac MCP-1 and FKN transcripts were quantified by qPCR. Points represent fold change of the mean±SD relative to Veh injected mice; *P<0.05 and **P<0.01. Experiment repeated three times with similar results; liver also responded with similar pulselike kinetics. FIG. 11B is a graph depicting that organ distribution of MCP-1 increased following a single IV dose of sPDNF. Experimental design analogous to that summarized above. FIG. 11C is a graph showing that a single IV dose of sPDNF augments MCP-1 and FKN transcripts dose-dependently in the heart. […] For the results depicted in FIGS. 11C and 11D, groups of three mice were injected with various doses of sPDNF, and heart and liver harvested 3 hr post-injection to quantify MCP-1 and FKN by qPCR. […]\nTo ensure that the response observed in wild type mice was not due to TLR activation, MCP-1 and FKN response to IV sPDNF was assessed in TLR-deficient MyD88^−/− mice (23)."}, "TrkB": {"target": "TrkB (Homo sapiens, UniProt Q16620)", "sequence (Q16620 32-822, species assumed)": "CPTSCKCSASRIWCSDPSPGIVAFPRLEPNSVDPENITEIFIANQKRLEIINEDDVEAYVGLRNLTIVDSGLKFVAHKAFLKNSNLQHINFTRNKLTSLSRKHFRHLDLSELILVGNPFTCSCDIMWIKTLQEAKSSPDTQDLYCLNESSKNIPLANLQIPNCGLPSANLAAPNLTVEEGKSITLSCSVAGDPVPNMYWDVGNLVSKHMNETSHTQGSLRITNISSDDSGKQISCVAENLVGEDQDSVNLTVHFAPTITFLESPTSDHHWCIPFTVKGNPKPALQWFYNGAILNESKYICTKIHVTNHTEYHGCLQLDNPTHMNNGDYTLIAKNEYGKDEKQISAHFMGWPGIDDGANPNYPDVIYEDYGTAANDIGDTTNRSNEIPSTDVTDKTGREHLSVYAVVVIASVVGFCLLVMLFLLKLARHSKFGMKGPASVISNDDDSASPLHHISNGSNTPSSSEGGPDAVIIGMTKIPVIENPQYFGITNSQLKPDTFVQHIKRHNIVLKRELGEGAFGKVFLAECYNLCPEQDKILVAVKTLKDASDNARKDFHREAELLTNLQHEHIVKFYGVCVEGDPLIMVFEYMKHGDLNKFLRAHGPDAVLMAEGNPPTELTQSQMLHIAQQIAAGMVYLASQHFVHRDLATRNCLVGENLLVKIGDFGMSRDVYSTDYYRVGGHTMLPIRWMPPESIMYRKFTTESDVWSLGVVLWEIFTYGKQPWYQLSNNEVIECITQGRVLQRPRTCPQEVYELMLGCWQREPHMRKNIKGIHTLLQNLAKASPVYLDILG", "conditions": "previous finding; cited from earlier work"}}}
{"molecule": "sPDNF: N-terminal short-form of T cruzi PDNF that contains Trk-binding sites, recombinant; amino acids 1-588 of SEQ ID NO: 2; JR-100 is the commercial name (protein, listed as Trypanosoma cruzi) MGKTVVVASRMFWLMFFVPLLLAICPSEPAYALAPGSSRVELFKRKNSTVPFEDKAGKVTERVVHSFRLPALVNVDGVMVAIADARYDTSNDNSLIDTVAKYSVDDGETWETQIAIKNSRVSSVSRVVDPTVIVKGNKLYVLVGSYYSSRSYWSSHGDARDWDILLAVGEVTKSTAGGKITASIKWGSPVSLKKFFPAEMEGMHTNQFLGGAGVAIVASNGNLVYPVQVTNKKKQVFSKIFYSEDDGKTWKFGKGRSDFGCSEPVALEWEGKLIINTRVDWKRRLVYESSDMEKPWVEAVGTVSRVWGPSPKSNQPGSQSSFTAVTIEGMRVMLFTHPLNFKGRWLRDRLNLWLTDNQRIYNVGQVSIGDENSAYSSVLYKDDKLYCLHEINTDEVYSLVFARLVGELRIIKSVLRSWKNWDSHLSSICTPADPAASSSESGCGPAVTTVGLVGFLSGNASQNVWEDAYRCVNASTANAERVRNGLKFAGVGGGALWPVSQQGQNQRYRFANHAFTLVASVTIHEAPRAASPLLGASLDSSGGKKLLGLSYDEKHQWQPIYGSTPVTPTGSWETGKRYHLVLTMANKI", "values": [{"measurement": "expression of cardiac and hepatic stem cell markers", "setting": "[1]", "value": "increased expression"}, {"measurement": "expression of FKN in the heart and liver", "setting": "MCP-1 and FKN", "value": "sharp increase"}, {"measurement": "expression of MCP-1 in the heart and liver", "setting": "MCP-1 and FKN", "value": "sharp increase"}, {"measurement": "recognition of TrkB", "setting": "TrkB", "value": "not recognized"}]}
